Our source for the Kd values is the Immune Epitope Database (IEDB).

Holding throughout (assay): IEDB peptide-MHC binding, purified MHC/competitive/radioactivity; filed as Kd, often an IC50 or EC50 that approximates it; ≥ and ≤ were set here for values at or beyond the usual limits of such assays
Test [1] has as its target HLA-A*33:01.
Test [2] addresses HLA-A*11:01.
Test [3] has as its target HLA-A*31:01.
Test [4] has as its target HLA-A*03:01.
Test [5] deals with HLA-A*68:01.
Test [6] addresses HLA-A*02:06. As to conditions: source organism: Dengue virus 4 Philippines/H241/1956.
Where [7] appears, read: source organism: Vaccinia virus WR.
Setting [8] is: source organism: Lymphocytic choriomeningitis virus (strain Pasteur).
Setting [9] is: source organism: SARS coronavirus Tor2.
Setting [10] is: source organism: Triticum aestivum.

Consider GLYNHNNTTY, for which the dissociation constant (Kd) (commonly a measure of binding affinity in units of concentration) was found to be 14200 nM in test [1] (setting [7]); 75.5 nM in test [2] (setting [7]); 7950 nM in test [3] (setting [7]); 21 nM in test [4] (setting [7]); 938 nM in test [5] (setting [7]).

WLYYNQDVQR: the dissociation constant Kd in test [1] (setting [7]) is 161 nM; in test [2] (setting [7]), 7910 nM; in test [3] (setting [7]) it was 222 nM; in test [4] (setting [7]) it was 1840 nM; in test [5] (setting [7]), 8.21 nM.

On to AVNKSNKPLK, for which the Kd in test [1] (setting [7]) is not below 47000 nM; in test [2] (setting [7]) it was 147 nM; in test [3] (setting [7]), 1560 nM; in test [4] (setting [7]) it was 1090 nM; in test [5] (setting [7]) it was 5960 nM.

In the case of DSDVSLIIEY, the Kd in test [1] (setting [7]) is 4690 nM; in test [2] (setting [7]), 2730 nM; in test [3] (setting [7]) it was 10300 nM; in test [4] (setting [7]), 4820 nM; in test [5] (setting [7]), 205 nM.

On to LIKTILASY, for which the Kd came out at 18700 nM in test [1] (setting [7]); 7870 nM in test [2] (setting [7]); 7440 nM in test [3] (setting [7]); 568 nM in test [4] (setting [7]); 10300 nM in test [5] (setting [7]).

FSSLRREHIK: the Kd in test [1] (setting [7]) turned out to be 17400 nM; in test [2] (setting [7]) it was 277 nM; in test [3] (setting [7]) it was 144 nM; in test [4] (setting [7]), 1020 nM; in test [5] (setting [7]), 94.1 nM.

With TIDNPTKYIR, the Kd in test [1] (setting [7]) worked out at 4260 nM; in test [2] (setting [7]), 2600 nM; in test [3] (setting [7]) it was 115 nM; in test [4] (setting [7]) it was 15700 nM; in test [5] (setting [7]), 158 nM.

Regarding VTPEYIKDLK, the Kd in test [1] (setting [7]) was not below 70000 nM; in test [2] (setting [7]), 522 nM; in test [3] (setting [7]), 15100 nM; in test [4] (setting [7]), 14300 nM; in test [5] (setting [7]), 374 nM.

With TYLGPLNCK, the Kd was 834 nM in test [1] (setting [8]); 47.8 nM in test [2] (setting [8]); 5220 nM in test [3] (setting [8]); 481 nM in test [4] (setting [8]); 699 nM in test [5] (setting [8]).

Consider CIRNASKFVY, for which the Kd was not below 70000 nM in test [1] (setting [7]); 19900 nM in test [2] (setting [7]); not below 70000 nM in test [3] (setting [7]); 17500 nM in test [4] (setting [7]); not below 37000 nM in test [5] (setting [7]).

As for ILCFTIKRK, the dissociation constant (Kd) is not below 45000 nM in test [1] (setting [9]); 7710 nM in test [2] (setting [9]); 6680 nM in test [3] (setting [9]); 1000 nM in test [4] (setting [9]); 17200 nM in test [5] (setting [9]).

In the case of DFLKDDTLSK, the Kd in test [1] (setting [7]) was 8000 nM; in test [2] (setting [7]) it was 5760 nM; in test [3] (setting [7]), not below 70000 nM; in test [4] (setting [7]), 15000 nM; in test [5] (setting [7]), 10700 nM.

With GQIHLAIMAV, the equilibrium dissociation constant (Kd) in test [6] was 1.33 nM.

With FIQWTGGNIR, the Kd in test [1] (setting [7]) was 2050 nM; in test [2] (setting [7]) it was not below 22000 nM; in test [3] (setting [7]), 3860 nM; in test [4] (setting [7]), not below 29800 nM; in test [5] (setting [7]) it was 112 nM.

For the sequence ISAEKTPIR, the Kd was not below 77700 nM in test [1] (setting [7]); 6020 nM in test [2] (setting [7]); not below 41700 nM in test [3] (setting [7]); not below 78000 nM in test [4] (setting [7]); 275 nM in test [5] (setting [7]).

For TQLYLGGMSY, the Kd in test [1] (setting [9]) was not below 40000 nM; in test [2] (setting [9]), 766 nM; in test [3] (setting [9]) it was 5840 nM; in test [4] (setting [9]), 36.5 nM; in test [5] (setting [9]), 1350 nM.

Turning to FFASFYYIWK, the Kd in test [1] (setting [9]) was determined as 60.9 nM; in test [2] (setting [9]), 243 nM; in test [3] (setting [9]), 734 nM; in test [4] (setting [9]) it was 285 nM; in test [5] (setting [9]) it was 86.2 nM.

For LQQHNIVHGK, the dissociation constant (Kd) in test [1] (setting [10]) is not below 70000 nM; in test [2] (setting [10]), 100 nM; in test [3] (setting [10]) it was 2420 nM; in test [4] (setting [10]), 1160 nM; in test [5] (setting [10]) it was not below 47900 nM.

Regarding QTMLFTMLRK, the Kd in test [1] (setting [9]) stood at 268 nM; in test [2] (setting [9]) it was 4.57 nM; in test [3] (setting [9]), 164 nM; in test [4] (setting [9]) it was 11.1 nM; in test [5] (setting [9]), 19.9 nM.

Take IVTMMKYCSY: the Kd in test [1] (setting [7]) turned out to be 235 nM; in test [2] (setting [7]) it was 26.8 nM; in test [3] (setting [7]), 31.6 nM; in test [4] (setting [7]), 127 nM; in test [5] (setting [7]) it was 41.5 nM.

DFRDYQSYR: the Kd in test [1] (setting [7]) was 0.837 nM; in test [2] (setting [7]), 13600 nM; in test [3] (setting [7]) it was 74.5 nM; in test [4] (setting [7]), not below 78000 nM; in test [5] (setting [7]), 1020 nM.

For the sequence VVYRGTTTYK, the equilibrium dissociation constant (Kd) was 6920 nM in test [1] (setting [9]); 15.8 nM in test [2] (setting [9]); 260 nM in test [3] (setting [9]); 5.74 nM in test [4] (setting [9]); 11.6 nM in test [5] (setting [9]).
